According to paper PMC8368218 (Cell Discovery, 2021):
Where “and” joins values, the source holds several entries; their conditions need not be identical. Identical values can stand only once.

B1: SARS-CoV-2 N^11–24 (domain or fragment)
chain: NAPRITFGGPSDST
notes: also called fragment from the N-IDR of N protein

Legend:
[1] = biological target: G3BP1^NTF2 (UniProt Q13283); assay: ITC
[2] = biological target: T1, G3BP1^NTF2 (UniProt Q13283 11-133); assay: ITC; details: both partners purified
T1 construct: also called NTF2 domain of G3BP1
T1 sequence (Q13283 11-133): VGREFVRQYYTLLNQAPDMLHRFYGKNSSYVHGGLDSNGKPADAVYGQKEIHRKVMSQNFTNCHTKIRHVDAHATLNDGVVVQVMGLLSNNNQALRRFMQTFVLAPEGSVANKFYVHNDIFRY

Sequence of G3BP1^NTF2 (UniProt Q13283) (Q13283 11-133): as above

Row | Molecule | fold reduction of affinity against N^11–24 wild type [1] | Kd [2] [µM]
1 | SARS-CoV-2 N^11–24 F/A (from UniProt P0DTC9 11-24) (domain or fragment) | 7 fold and 6 fold | –
2 | SARS-CoV-2 N^11–24 I/A (from UniProt P0DTC9 11-24) (domain or fragment) | 6 fold and 7 fold | –
3 | B1 | – | ~10
